Reference: article PMC10406935

What was measured:
[1] = molecular target: MslH (lasso peptide epimerase), N-terminally His6-tagged, wild type (Streptomyces griseorubiginosus); test: SEC; gel-filtration of purified recombinant His6-MslH; apparent molecular weight against the 49.4 kDa calculated for the monomer
[2] = molecular target: MslH (lasso peptide epimerase), N-terminally His6-tagged, wild type (Streptomyces griseorubiginosus); test: crystal structure; MslH:apo, His6-MslH 5 mg/ml, sitting-drop vapor diffusion, 20 °C; space group I422, one monomer in the asymmetric unit; 2.30 Å
[3] = molecular target: MslH (lasso peptide epimerase), N-terminally His6-tagged, wild type (Streptomyces griseorubiginosus); test: crystal structure; co-crystallisation: purified His6-MslA analogue-MslB1 complex mixed with His6-MslH (5 mg/ml) at 1.2:1 mole ratio 16 h before the precipitant; sitting drops, 20 °C; one monomer in the asymmetric unit

Measured: stoichiometry N

MslH (lasso peptide epimerase), N-terminally His6-tagged, wild type (enzyme)
8: all assays above
